The star is where a group is joined. Nonanoyl = CCCCCCCCC(=O)*
B1: n-Nonanoyl-RANTES (2-68) (ligand)
chain: Nonanoyl-PYSSDTTPCCFAYIARPLPRAHIKEYFYTSGKCSNPAVVFVTRKNRQVCANPEKKWVREYINSLEMS
modifications: ends and bridges not checked
B2: AOP-RANTES-K(palmitoyl)-G (ligand)
chain: PYSSDTTPCCFAYIARPLPRAHIKEYFYTSGKCSNPAVVFVTRKNRQVCANPEKKWVREYINSLEMSKG
modifications: N-terminal aminooxypentane in place of Ser 1; epsilon amino group of the Lys of the C-terminal extension carries glyoxylyl=AoA-ethylene diamine-palmitate ("palmitoyl"), joined by an oxime bond
B3: Aminooxypentane-RANTES (2-68) (ligand)
chain: {CH3‑(CH2)4‑O‑N:CH‑CO}-PYSSDTTPCCFAYIARPLPRAHIKEYFYTSGKCSNPAVVFVTRKNRQVCANPEKKWVREYINSLEMS
modifications: ends and bridges not checked
B4: NNY-…-L19I-RANTES (20-68) (ligand)
chain: Nonanoyl-PYSSDTTPCCFAYIARPIPRAHIKEYFYTSGKCSNPAVVFVTRKNRQVCANPEKKWVREYINSLEMS
modifications: ends and bridges not checked
B5: NNY-PYSSDTTPCCFAYI-A16S-RANTES (17-68) (ligand)
chain: Nonanoyl-PYSSDTTPCCFAYISRPLPRAHIKEYFYTSGKCSNPAVVFVTRKNRQVCANPEKKWVREYINSLEMS
modifications: ends and bridges not checked

Experiments:
CCR5 [1] = biological target: T1, CCR5 (Homo sapiens (Human), UniProt P51681); assay: cell-based or functional assay
CCR5 [2] = biological target: T1, CCR5; assay: cell-based or functional assay; remark: listed apart in the source

Row | Binder | Average Infectivity IC50 (cell-free viral infection assay) (CCR5 [1]) | Cell-Fusion Result For Comparison (IC50) (CCR5 [1]) | Mean Relative Potency (IC50 in the envelope-mediated cell fusion assay, relative to AOP-RANTES = 100) (CCR5 [2])
1 | B1 | 0.024 nM | 0.097 nM | 
2 | B2 |  |  | 45 relative to AOP-RANTES = 100
3 | B3 | 0.145 nM | 0.48 nM | 100 relative to AOP-RANTES = 100 (arbitrary value of the control)
4 | B4 |  |  | 13 relative to AOP-RANTES = 100
5 | B5 |  |  | 15 relative to AOP-RANTES = 100

Reference: patent US20040077835A1, “Chemokine receptor modulators, production and use” (published 2004)
